Measured values as given in patent publication US20050182003A1, “Drugs to be used in gene therapy for recessively transmitted genetic disease” (priority 2002, published 2005).

Test system: mouse
Assay: suppression of immune response by oral tolerance
Type: in vivo
Conditions: administered orally to a mouse
From the text: As for a method for suppressing antigen-specific immune response, various methods have been already reported. […] Therefore, they tried to suppress the anti-Dsg3 antibody generation in Dsg3^+/+ graft strain by inhibiting the binding of CD40 and CD40L, which are playing an important role to the establishment of immune response. CD40L is a type II cell membrane-penetrating protein, expressed transiently in activated T cells having received antigen stimulation and CD40, its receptor, is expressed in B cells, dendritic cells, monocyte/macrophage, endothelial cells and the like. The CD40-CD40L binding not only plays an important role in cellular immunity by promoting cytokine production and the like, but it is clarified to be quite important for proliferation of B cells, antibody production and the like. Thus, attempts have been made to suppress immune response in autoimmune diseases, organ transplantation and the like by using anti-CD40L monoclonal antibody inhibiting this binding. As mentioned above, in Dsg3^+/+ graft strain, anti-Dsg3 IgG antibody generation, which is detected in serum by ELISA method, is observed approximately two weeks after skin graft, in all mice that underwent skin graft.

B1: Dsg3 protein: Dsg3 protein prepared with the use of E. Coli expression vector, administered orally (protein, UniProt P32926 50-999, looked up)
Desmoglein-3: EWVKFAKPCREGEDNSKRNPIAKITSDYQATQKITYRISGVGIDQPPFGIFVVDKNTGDINITAIVDREETPSFLITCRALNAQGLDVEKPLILTVKILDINDNPPVFSQQIFMGEIEENSASNSLVMILNATDADEPNHLNSKIAFKIVSQEPAGTPMFLLSRNTGEVRTLTNSLDREQASSYRLVVSGADKDGEGLSTQCECNIKVKDVNDNFPMFRDSQYSARIEENILSSELLRFQVTDLDEEYTDNWLAVYFFTSGNEGNWFEIQTDPRTNEGILKVVKALDYEQLQSVKLSIAVKNKAEFHQSVISRYRVQSTPVTIQVINVREGIAFRPASKTFTVQKGISSKKLVDYILGTYQAIDEDTNKAASNVKYVMGRNDGGYLMIDSKTAEIKFVKNMNRDSTFIVNKTITAEVLAIDEYTGKTSTGTVYVRVPDFNDNCPTAVLEKDAVCSSSPSVVVSARTLNNRYTGPYTFALEDQPVKLPAVWSITTLNATSALLRAQEQIPPGVYHISLVLTDSQNNRCEMPRSLTLEVCQCDNRGICGTSYPTTSPGTRYGRPHSGRLGPAAIGLLLLGLLLLLLAPLLLLTCDCGAGSTGGVTGGFIPVPDGSEGTIHQWGIEGAHPEDKEITNICVPPVTANGADFMESSEVCTNTYARGTAVEGTSGMEMTTKLGAATESGGAAGFATGTVSGAASGFGAATGVGICSSGQSGTMRTRHSTGGTNKDYADGAISMNFLDSYFSQKAFACAEEDDGQEANDCLLIYDNEGADATGSPVGSVGCCSFIADDLDDSFLDSLGPKFKKLAEISLGVDGEGKEVQPPSKDSGYGIESCGHPIEVQQTGFVKCQTLSGSQGASALSTSGSVQPAVSIPDPLQHGNYLVTETYSASGSLVQPSTAGFDPLLTQNVIVTERVICPISSVPGNLAGPTQLRGSHTMLCTEDPCSRLI
For B1, the “suppression of immune response by oral tolerance” value was “failed to obtain successful results”.
